Assay results as given in patent US20160289342A1.

How the values were obtained:
human CD20 (human) [1] = target: human CD20 (human) (UniProt P11836); experiment: flow cytometry on JY cells, simultaneous binding assay, 200 ng biotinylated BAFF, CD20 channel FL-1
human CD20 (human) [2] = target: human CD20 (human) (UniProt P11836); experiment: flow cytometry on JY cells, simultaneous binding assay, 0.32 ng biotinylated BAFF, CD20 channel FL-1
human CD20 (human) [3] = target: human CD20 (human) (UniProt P11836); experiment: flow cytometry on JY cells, simultaneous binding assay, 1000 ng biotinylated BAFF, CD20 channel FL-1
human CD20 (human) [4] = target: human CD20 (human) (UniProt P11836); experiment: flow cytometry on JY cells, simultaneous binding assay, 5000 ng biotinylated BAFF, CD20 channel FL-1
[5] = target: recombinant human soluble BAFF (human) (UniProt Q9Y275); experiment: flow cytometry on JY cells, simultaneous binding assay, 200 ng biotinylated BAFF, BAFF channel FL-2 (PE)
Sequence of recombinant human soluble BAFF (human) (Q9Y275 134-285 limits assumed): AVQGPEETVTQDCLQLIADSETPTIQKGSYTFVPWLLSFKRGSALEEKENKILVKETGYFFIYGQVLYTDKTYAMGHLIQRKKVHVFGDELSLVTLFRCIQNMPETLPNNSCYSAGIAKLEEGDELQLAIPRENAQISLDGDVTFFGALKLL

[6] = target: recombinant human soluble BAFF (human) (UniProt Q9Y275); experiment: flow cytometry on JY cells, simultaneous binding assay, 0.32 ng biotinylated BAFF, BAFF channel FL-2 (PE)
[7] = target: recombinant human soluble BAFF (human) (UniProt Q9Y275); experiment: flow cytometry on JY cells, simultaneous binding assay, 1000 ng biotinylated BAFF, BAFF channel FL-2 (PE)
[8] = target: recombinant human soluble BAFF (human) (UniProt Q9Y275); experiment: flow cytometry on JY cells, simultaneous binding assay, 5000 ng biotinylated BAFF, BAFF channel FL-2 (PE)

Sequence of human CD20 (human) (P11836 whole entry): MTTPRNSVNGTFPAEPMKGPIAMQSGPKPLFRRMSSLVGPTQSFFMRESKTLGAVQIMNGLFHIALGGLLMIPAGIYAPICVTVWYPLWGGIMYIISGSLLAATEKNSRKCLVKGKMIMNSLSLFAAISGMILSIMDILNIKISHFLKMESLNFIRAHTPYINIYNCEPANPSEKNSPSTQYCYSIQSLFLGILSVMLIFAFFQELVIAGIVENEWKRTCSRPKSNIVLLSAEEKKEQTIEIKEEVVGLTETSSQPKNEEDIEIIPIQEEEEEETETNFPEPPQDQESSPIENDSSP

## control human IgG1 antibody
Human CD20 (human) [1]
  MFI: 18 MFI
Human CD20 (human) [2]
  MFI: 9.8 MFI
Human CD20 (human) [3]
  MFI: 9.14 MFI
Human CD20 (human) [4]
  MFI: 8.5 MFI
[5]
  MFI: 1.43 MFI
[6]
  MFI: 1.31 MFI
[7]
  MFI: 1.3 MFI
[8]
  MFI: 1.26 MFI
